Values quoted from earlier work in publication PMC5871712.
Where two headings read alike, the source gives them in different places.

Key:
[1] = target: CRFR2 (Rattus norvegicus) (UniProt P47866)
[2] = target: CRFR1 (Rattus norvegicus) (UniProt P35353)
[3] = target: CRFR1 (Rattus norvegicus) (UniProt P35353); remark: listed apart in the source
[4] = target: CRFR2 (Rattus norvegicus) (UniProt P47866); remark: listed apart in the source

CRF, sequence (P01143 145-187): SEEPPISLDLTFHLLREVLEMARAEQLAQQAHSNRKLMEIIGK
Ucn1, sequence (P55090 81-122): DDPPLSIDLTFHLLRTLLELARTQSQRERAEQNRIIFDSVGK
CRFR2 (Rattus norvegicus), sequence (P47866 20-411): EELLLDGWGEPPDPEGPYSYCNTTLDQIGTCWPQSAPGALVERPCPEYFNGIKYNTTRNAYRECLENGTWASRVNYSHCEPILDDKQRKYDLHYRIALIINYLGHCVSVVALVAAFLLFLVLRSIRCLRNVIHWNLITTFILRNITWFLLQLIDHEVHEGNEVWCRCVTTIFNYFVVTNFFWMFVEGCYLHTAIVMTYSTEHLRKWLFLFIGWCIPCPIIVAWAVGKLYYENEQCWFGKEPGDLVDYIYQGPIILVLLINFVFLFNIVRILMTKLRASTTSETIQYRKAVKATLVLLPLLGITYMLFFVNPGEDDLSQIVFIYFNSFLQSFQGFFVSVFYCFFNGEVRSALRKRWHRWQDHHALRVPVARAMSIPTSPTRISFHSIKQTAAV
CRFR1 (Rattus norvegicus), sequence (P35353 24-415): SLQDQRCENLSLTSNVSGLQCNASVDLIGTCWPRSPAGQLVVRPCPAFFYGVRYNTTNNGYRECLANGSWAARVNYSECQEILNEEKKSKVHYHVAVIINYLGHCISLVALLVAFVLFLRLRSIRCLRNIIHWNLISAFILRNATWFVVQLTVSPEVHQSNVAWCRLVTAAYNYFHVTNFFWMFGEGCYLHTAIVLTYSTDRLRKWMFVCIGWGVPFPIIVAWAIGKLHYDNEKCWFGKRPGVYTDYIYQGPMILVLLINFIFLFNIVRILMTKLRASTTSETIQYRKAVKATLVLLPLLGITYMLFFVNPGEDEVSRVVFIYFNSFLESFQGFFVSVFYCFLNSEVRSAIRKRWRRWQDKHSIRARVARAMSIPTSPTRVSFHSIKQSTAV

Ki [1] [nM]	Ki [2] [nM]	Ki [3] [nM]	Ki [4] [nM]	Substance
42	1.6	–	–	CRF (from UniProt P01143)
–	–	0.17	0.86	Ucn1 (from UniProt P55090)
